One assay deals with T1, ERRα1 (Homo sapiens, UniProt P11474).
T1 construct: inserting the PCR-amplified ERRA-1 coding region into pGBT9 through an EcoRI site; expressed in transfected cells; host or cells: yeast Y187 x CG1945 diploids
T1 sequence (P11474 1-423): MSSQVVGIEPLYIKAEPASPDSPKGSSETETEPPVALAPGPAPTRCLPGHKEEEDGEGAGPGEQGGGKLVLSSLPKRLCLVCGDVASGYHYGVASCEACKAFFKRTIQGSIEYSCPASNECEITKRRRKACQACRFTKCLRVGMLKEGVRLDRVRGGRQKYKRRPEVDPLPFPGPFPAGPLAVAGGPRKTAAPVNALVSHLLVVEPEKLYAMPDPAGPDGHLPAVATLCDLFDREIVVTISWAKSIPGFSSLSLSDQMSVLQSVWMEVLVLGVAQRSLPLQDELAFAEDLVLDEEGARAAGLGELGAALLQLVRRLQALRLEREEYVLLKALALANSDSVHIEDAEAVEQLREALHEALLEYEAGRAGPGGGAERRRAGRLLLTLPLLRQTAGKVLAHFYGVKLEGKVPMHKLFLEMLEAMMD
As to the kind of experiment: Nuclear receptor transactivation, CAT reporter in SK-BR-3 cells. Type of assay: cell-based. The source says: To examine the possible biological significance of this interaction, the entire PNRC coding region was inserted into a mammalian expression vector, pSG5, and this expression plasmid was used to transiently transfect SK-BR-3 cells along with a reporter plasmid, pUMS 1.3CAT-(SF1site)3, which contains three copies of extended steroid hormone half binding site from the human aromatase gene (5′-CCAAGGTCAGAA-3′ (SEQ ID NO:3)), promoter 1.3 of the human aromatase gene, and the CAT reporter gene, along with a second expression plasmid for either SF1 (pSG5-SF1) or ERRα1 (pSG5-ERRα1) (Yang et al., 1998).
Plasmid for overexpression of PNRC in mammalian cells was made by inserting PCR-amplified fragment with BclI at both ends into the BamHI site in pSG5 vector (Stratagene). To construct mammalian expression plasmids for bovine SF1 and human ERRα1, named pSG5-bSF1 and pSGS-hERRα1, the coding regions for SF1 and ERRα1 were amplified by PCR with an EcoRI site at both ends, and inserted into an EcoRI site of the pSG5 vector. The CAT reporter plasmid, pUMS1.3CAT-(SF1site)3, was prepared by inserting 3 copies of SF1 binding site from human aromatase gene, 5′-CCAAGGTCAGAA-3′ (SEQ ID NO:3), into pUMS-64/+5CAT (Zhou and Chen, 1999) through a HindIII site. […]

In another assay the target is SF1 (Bos taurus, UniProt Q04752). As to the kind of experiment: Mammalian two-hybrid assay in SK-BR-3 cells (CAT reporter). Conditions: pM-SF1 + pVP16-PNRC + pG5CAT. Also noted: expressed in transfected cells; host or cells: SK-BR-3. Type of assay: cell-based, bovine. The protocol: The Mammalian MatchMaker two-hybrid assay system (Clontech) was used to confirm the interaction between PNRC and SF1 that was identified in the yeast assays. Because the assays are performed in mammalian cells, proteins are more likely to be in their native conformations, and the results are therefore more likely to represent biologically significant interactions. SK-BR-3 breast cancer cells were cotransfected with three expression plasmids, including pM-SF1 for Gal4 DNA-DB/SF1 fusion protein, pVP16-PNRC for VP16AD-PNRC fusion protein, and a third vector, pG5CAT, to provide the Gal4 DNA-binding site, a promoter, and the CAT reporter gene.
Chain of SF1 (Q04752 whole entry, the tested form may be a part): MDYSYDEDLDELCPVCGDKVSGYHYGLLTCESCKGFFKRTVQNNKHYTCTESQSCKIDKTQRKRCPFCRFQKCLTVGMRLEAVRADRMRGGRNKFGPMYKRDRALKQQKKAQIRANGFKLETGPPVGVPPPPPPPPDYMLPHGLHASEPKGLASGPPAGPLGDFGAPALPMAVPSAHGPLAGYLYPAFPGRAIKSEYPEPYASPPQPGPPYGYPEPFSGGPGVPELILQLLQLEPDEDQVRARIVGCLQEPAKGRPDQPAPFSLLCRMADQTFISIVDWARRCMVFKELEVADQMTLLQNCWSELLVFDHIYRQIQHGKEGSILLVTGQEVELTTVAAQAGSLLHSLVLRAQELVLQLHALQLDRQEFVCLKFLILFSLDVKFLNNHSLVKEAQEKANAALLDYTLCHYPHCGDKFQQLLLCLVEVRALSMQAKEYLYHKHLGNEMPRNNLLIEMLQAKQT
A set of plasmids, named pM-SF1, pVP16-PNRC, pVP16-PNRC270-327, and pVP16-PNRC278-300, for mammalian two-hybrid assays were prepared as follows: SF1 cDNA fragment was excised from pGBT9-SF1 and inserted in frame into Gal4 DNA-binding domain vector pM (Clontech) through an EcoRI site. PCR was used to generate PNRC full length coding region as well as the above mentioned deleted fragments with BclI at both ends. The PCR products were digested with BclI and inserted in proper reading frame into a pVP16 activation domain vector (Clontech) at a BamHI site. Mammalian two-hybrid assays in SK-BR-3 cells were performed according to the procedures described in the Clontech protocol (PT3002-1).

With “PNRC: proline-rich nuclear receptor co-regulatory protein, 327 aa, SEQ ID NO:8, nuclear receptor coactivator”, in the assay with ERRα1, the “effect on ERRα1-stimulated transcription by promoter 1.3 of the human aromatase gene” value is “enhanced both SF1-stimulated and ERRα1-stimulated transcription”. The “CAT activity relative to cells transfected with only CAT reporter plasmid” value with SF1 was 5-6 fold.
